We go through four compounds from patent US10166142B2, “Small molecule delivery with implantable therapeutic device” (ForSight Vision4, Inc., priority 2011, dated 2019).

Counter-ions that a name gives are not always drawn. Like-named read-outs stand apart in the source and are kept apart here.

For data set [1] the following is noted: rabbit and monkey (Gaudreault et al), cited from earlier work.
For data set [2] the following is noted: cited from earlier work.
For data set [3], the system named is laser photocoagulation treatment-induced Grade IV choroidal neovascularization (CNV) Lesions. Conditions: intravitreal injection, all doses tested (Z. Yao et al., ARVO 2009); cited from earlier work.
The nature of data set [4]: Diffusion coefficient in water (literature value / estimate by MW scaling). The class given is physicochemical. Conditions: estimated, at 37C.
Excerpt: If the reservoir solution is aqueous or has a viscosity similar to water, the value for the diffusion coefficient of the therapeutic agent (TA) in water at the temperature of interest may be used. […] (Molokhia et al, Exp Eye Res 2008): DTA,37C=DBSA,20C(η20C/η37C)(MWBSA/MWTA)^1/3 where
MW refers to the molecular weight of either BSA or the test compound and η is the viscosity of water.
Small molecules have a diffusion coefficient similar to fluorescein (MW=330, D=4.8 to 6 e-6 cm^2/s from Stay, M S et al. Pharm Res 2003, 20(1), pp. 96-102). For example, the small molecule may comprise a glucocorticoid such as triamcinolone acetonide having a molecular weight of about 435.
(§1) The volume of the device was approximately 25 uL.
as §1

Data set [5] is described as follows: Solubility of dorzolamide suspension formulation, Example A. Format: physicochemical. As to conditions: aqueous buffer, thermodynamic from solid; PBS+0.02% sodium azide, pH 7.4, 37C; read-out: dissolved concentration (i.e., solubility).

Take ranibizumab [Lucentis]: the figures for the half-life in vitreous entry in data set [1], in data set [1] (listed as ranibizumab) and in data set [2] (human eye (Lucentis package insert)) were “about two to four days”, “approximately 3 days” and roughly 220 h, respectively. Besides, the “Half-life” value in data set [2] (human vitreous, model parameter for FIGS. 119 to 124) is 220 h. Further, in data set [3], the “development of Grade IV CNV lesions” value was “completely inhibit”.
On to `O=C(c1ccccc1)c1ccc2n1CCC2C(=O)O` (centres unmarked) [Ketorolac, Ketorolac Tromethamine], for which the diffusion coefficient in data set [4] is listed as 6×10^−6 cm^2/s.
As for `CCN[C@H]1C[C@H](C)S(=O)(=O)c2sc(S(N)(=O)=O)cc21` [Dorzolamide, dorzolamide Hydrochloride], the solubility in data set [5] came out at 9000 µg/mL.
Take `CN(Cc1cnc2nc(N)nc(N)c2n1)c1ccc(C(=O)N[C@@H](CCC(=O)O)C(=O)O)cc1` [Methotrexate, methotrexate]: the diffusion coefficient in data set [4] was 5×10^−6 cm^2/s.
